These results are taken from patent US20240270846A1 (published 2024).

Substitutions are numbered along the chain they refer to. Names may count otherwise.

In this assay the target is T1, CD3 epsilon homodimer protein (UniProt P07766 23-126).
T1 construct: construct not described; homodimer as printed; also called CD3 (CD3 epsilon)
As to the kind of experiment: SPR Biacore T200, CD3 epsilon homodimer immobilized; vs unaltered GLS3000.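 Also: antibody variants flowed as analyte over CD3 epsilon homodimer amine-coupled to a CM4 chip, at 25 °C in HBS-EP+ running buffer, fitted with Biacore T200 Evaluation Software.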 For orientation: In SPR one partner is held on a chip, and binding of the other changes the refractive index at the surface.

T1 sequence (P07766 23-126): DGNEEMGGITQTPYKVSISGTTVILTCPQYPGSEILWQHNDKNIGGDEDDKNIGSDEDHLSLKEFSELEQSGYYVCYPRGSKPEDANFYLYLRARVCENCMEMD

B1: GLS3000 N28Q (Kabat) L chain altered form, one-arm antibody with CE115HA000 (antibody, human IgG1, kappa, L234A L235A, N297A, name in Kabat numbering)
heavy: QVQLVESGGGVVQPGRSLRLSCAASGFTFSNAWMHWVRQAPGKGLEWVAQIKAKSNNYATYYAESVKGRFTISRDDSKNSLYLQMNSLKTEDTAVYYCRYVHYGAYYGVDAWGQGTTVTVSSASTKGPSVFPLAPSSKSTSGGTAALGCLVKDYFPEPVTVSWNSGALTSGVHTFPAVLQSSGLYSLSSVVTVPSSSLGTQTYICNVNHKPSNTKVDKKVEPKSCDKTHTCPPCPAPEAAGGPSVFLFPPKPKDTLMISRTPEVTCVVVDVSHEDPEVKFNWYVDGVEVHNAKTKPREEQYASTYRVVSVLTVLHQDWLNGKEYKCKVSNKALPAPIEKTISKAKGQPREPQVYTLPPSRCELTKNQVSLSCAVKGFYPSDIAVEWESNGQPENNYKTTPPVLDSDGSFFLVSKLTVDKSRWQQGNVFSCSVMHEALHNHYTQKSLSLSPDYKDDDDK
chain: EPKSSDKTHTCPPCPAPELLGGPSVFLFPPKPKDTLMISRTPEVTCVVVDVSHEDPEVKFNWYVDGVEVHNAKTKPREEQYNSTYRVVSVLTVLHQDWLNGKEYKCKVSNKALPAPIEKTISKAKGQPREPQVCTLPPSRDELTKNQVSLWCLVKGFYPSDIAVEWESNGQPENNYKTTPPVLDSDGSFFLYSKLTVDKSRWQQGNVFSCSVMHEALHNRYTQKSLSLSP
light: DIVMTQSPLSLPVTPGEPASISCRSSQSLVHSQRNTYLHWYQQKPGQAPRLLIYKVSNRFSGVPDRFSGSGSGTDFTLKISRVEAEDVGVYYCGQGTQVPYTFGQGTKLEIKRTVAAPSVFIFPPSDEQLKSGTASVVCLLNNFYPREAKVQWKVDNALQSGNSQESVTEQDSKDSTYSLSSTLTLSKADYEKHKVYACEVTHQGLSSPVTKSFNRGEC
notes: one-arm antibody
Take B1: the “KD ratio to GLS3000 (Affinity up)” value came out at 3.48.

B2: GLS3000 N30G (Kabat) L chain altered form, one-arm antibody with CE115HA000 (antibody, human IgG1, kappa, L234A L235A, N297A, name in Kabat numbering)
heavy: B1 heavy
chain: B1 chain
light: B1 light with Q33N, N35G
notes: one-arm antibody
Regarding B2, the “KD ratio to GLS3000 (Affinity up)” value turned out to be 2.1.

B3: GLS3000 N30E (Kabat) L chain altered form, one-arm antibody with CE115HA000 (antibody, human IgG1, kappa, L234A L235A, N297A, name in Kabat numbering)
heavy: B1 heavy
chain: B1 chain
light: B1 light with Q33N, N35E
notes: one-arm antibody
On to B3, for which the “KD ratio to GLS3000 (Affinity up)” value was 2.83.

B4: GLS3000 N28S (Kabat) L chain altered form, one-arm antibody with CE115HA000 (antibody, human IgG1, kappa, L234A L235A, N297A, name in Kabat numbering)
heavy: B1 heavy
chain: B1 chain
light: B1 light with Q33S
notes: one-arm antibody
For the molecule B4, the “KD ratio to GLS3000 (Affinity up)” value worked out at 4.3.

B5: GLS3000 N30A (Kabat) L chain altered form, one-arm antibody with CE115HA000 (antibody, human IgG1, kappa, L234A L235A, N297A, name in Kabat numbering)
heavy: B1 heavy
chain: B1 chain
light: B1 light with Q33N, N35A
notes: one-arm antibody
As to B5, the “KD ratio to GLS3000 (Affinity up)” value amounted to 1.16.

B6: GLS3000 N28V (Kabat) L chain altered form, one-arm antibody with CE115HA000 (antibody, human IgG1, kappa, L234A L235A, N297A, name in Kabat numbering)
heavy: B1 heavy
chain: B1 chain
light: B1 light with Q33V
notes: one-arm antibody
For the molecule B6, the “KD ratio to GLS3000 (Affinity up)” value turned out to be 3.73.

B7: GLS3000 N28T (Kabat) L chain altered form, one-arm antibody with CE115HA000 (antibody, human IgG1, kappa, L234A L235A, N297A, name in Kabat numbering)
heavy: B1 heavy
chain: B1 chain
light: B1 light with Q33T
notes: one-arm antibody
Turning to B7, the “KD ratio to GLS3000 (Affinity up)” value is 2.67.

B8: GLS3000 N28Y (Kabat) L chain altered form, one-arm antibody with CE115HA000 (antibody, human IgG1, kappa, L234A L235A, N297A, name in Kabat numbering)
heavy: B1 heavy
chain: B1 chain
light: B1 light with Q33Y
notes: one-arm antibody
On to B8, for which the “KD ratio to GLS3000 (Affinity up)” value was determined as 3.89.

B9: GLS3000 N30D (Kabat) L chain altered form, one-arm antibody with CE115HA000 (antibody, human IgG1, kappa, L234A L235A, N297A, name in Kabat numbering)
heavy: B1 heavy
chain: B1 chain
light: B1 light with Q33N, N35D
notes: one-arm antibody
As to B9, the “KD ratio to GLS3000 (Affinity up)” value was determined as 3.82.

B10: GLS3000 N28W (Kabat) L chain altered form, one-arm antibody with CE115HA000 (antibody, human IgG1, kappa, L234A L235A, N297A, name in Kabat numbering)
heavy: B1 heavy
chain: B1 chain
light: B1 light with Q33W
notes: one-arm antibody
B10: the “KD ratio to GLS3000 (Affinity up)” value came out at 3.17.
